Among the data in publication PMC6373949, “Expression optimization, purification, and functional characterization of cholesterol oxidase from Chromobacterium sp. DS1” (PLoS ONE, 2019) are Km values, retold here.

Substrate in the series: CC(C)CCC[C@@H](C)[C@H]1CC[C@H]2[C@@H]3CC=C4C[C@@H](O)CC[C@]4(C)[C@H]3CC[C@]12C
Put plainly: purified protein. As to conditions: 0.1 M potassium phosphate pH 7, 25°C, cholesterol 0-1 mM. It is filed as biochemical, Chromobacterium sp. DS-1.

A word on the Km: it is the concentration of substrate that gives half-maximal velocity.

B1: cholesterol oxidase from Chromobacterium sp. DS1 (ChO) (Chromobacterium sp. DS-1) (protein)
chain: GRLTCSQPNNFPAEIPLYKQSFKNWAGDIKVDDVWTCAPRSADEVVKVANWAKDNGYKVRARGMMHNWSPLTLAAGVSCPAVVLLDTTRYLTAMSIDASGPVAKVTAQAGITMEALLTGLEKAGLGVTAAPAPGDLTLGGVLAINGHGTAIPAKGERRLAGASYGSISNLVLSLTAVVYDKASGAYALRKFARNDPQIAPLLAHVGRSLIVEATLQAAPNQRLRCQSWFNIPYGEMFAAAGSGGRTFASYLDSAGRVEAIWFPFTSNPWLKVWTVTPNKPLFSRQTDKPFNYPFSDNLPDEVTDLANKILSLGDGKLTPAFGKAQFAAASAGLVATASWDLWGWSKNLLLYVKPTTLRVTANGYAVLTRRENVQRVLNEFVTFYQARVQAYQQQGRYPMNGPVEIRVTGLDDPSEAALSGGVAPALSAIRPRPDHPEWNVAVWLDILTLPGTPYANQFYREIEQWIEANFNGSYAAVRPEWSKGWGYTDQAAWADSAMLQTTIPNAFRAGQPAAANWDAAKAALAAYDPYRLFSSPLLDSLGL
notes: synthetic gene in pET24b(+) NdeI-BamHI; 6xHis tag (N-terminal), no tag removal told; E. coli Rosetta-gami2(DE3); native enzyme 58 kDa
For the protein B1, the Km was found to be 31 µM.
